Patent publication US20030152514A1 (ABGENIX, published 2003)
Several values for one entry are separate records, joined by “and”; a condition that tells them apart may be missing. Identical values can stand only once.

Key:
[1] = target: T1, MUC18-V5-His antigen (extracellular domain aa 1-559 of human MUC18 fused to V5-HIS) (human, UniProt P43121 24-559); experiment: SPR (Biacore 3000), mAb captured on protein A, MUC18-V5-His in flow, 1:1 model; October 2001, chip II; exponent printed without its minus sign
[2] = target: T1, MUC18-V5-His antigen (extracellular …); experiment: SPR (Biacore 3000), mAb captured on protein A, MUC18-V5-His in flow, 1:1 model; May 2001, chip I
[3] = target: T1, MUC18-V5-His antigen (extracellular …); experiment: SPR (Biacore 3000), mAb captured on protein A, MUC18-V5-His in flow, 1:1 model; October 2001, chip II
[4] = target: T1, MUC18-V5-His antigen (extracellular …); experiment: SPR (Biacore 3000), average of the seven measurements
[5] = target: T1, MUC18-V5-His antigen (extracellular …); experiment: SPR (Biacore 3000), mAb captured on protein A, MUC18-V5-His in flow, 1:1 model; May 2001, chip I; exponent printed without its minus sign
[6] = target: T2, mouse MUC18 protein of normal (nude) mouse endothelial cells (mouse, UniProt Q8R2Y2 24-648); experiment: immunoblot of nude mouse endothelial cell lysate (40 ug protein, 10% SDS-PAGE), anti-human IgG secondary, ECL
T2 construct: whole, on cells; Tested as cell lysate on SDS-PAGE immunoblot, not on intact cells; also called NME; NME2 cells
T2 sequence (looked up): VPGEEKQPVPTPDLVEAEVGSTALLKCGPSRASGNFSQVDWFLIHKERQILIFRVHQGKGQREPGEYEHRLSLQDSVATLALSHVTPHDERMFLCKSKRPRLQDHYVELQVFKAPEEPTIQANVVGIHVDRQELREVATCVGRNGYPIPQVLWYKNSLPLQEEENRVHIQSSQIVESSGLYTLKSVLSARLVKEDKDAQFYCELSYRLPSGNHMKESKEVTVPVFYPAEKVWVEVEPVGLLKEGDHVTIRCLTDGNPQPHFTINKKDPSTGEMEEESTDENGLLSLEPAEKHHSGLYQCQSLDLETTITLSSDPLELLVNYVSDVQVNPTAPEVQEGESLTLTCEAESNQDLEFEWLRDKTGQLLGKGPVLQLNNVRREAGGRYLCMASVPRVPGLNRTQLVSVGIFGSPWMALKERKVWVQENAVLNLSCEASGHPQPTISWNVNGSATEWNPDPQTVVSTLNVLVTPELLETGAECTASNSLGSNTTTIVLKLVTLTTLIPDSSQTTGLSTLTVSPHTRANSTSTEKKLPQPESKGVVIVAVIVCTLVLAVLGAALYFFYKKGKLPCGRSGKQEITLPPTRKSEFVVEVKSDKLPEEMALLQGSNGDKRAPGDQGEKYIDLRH
Procedure: (§1) After overnight incubation, the plates were washed two times in PBS, and scraped in 400 μl Triton lysis buffer containing a cocktail of protease inhibitors plus DTT. Following centrifugation, the protein concentration was determined using a kit from BioRad. 40 μg of protein was loaded onto a 10% SDS-PAGE and electrophoretically transferred to a 0.45 -micron nitrocellulose membrane (Millipore). The membrane was incubated in buffer containing anti-MUC18 antibody overnight, reacted with a conjugated secondary antibody (Anti-human IgG) for one hour and the proteins were subsequently detected by the ECL (Amersham Corp) method according to the manufactures protocol.

[7] = target: T1, MUC18-V5-His antigen (extracellular …); experiment: SPR (Biacore 3000), mAb captured on protein A, MUC18-V5-His in flow, 1:1 model; November 2001, chip III
[8] = target: T3, human MUC18 expressed by human melanoma cells (A375-SM, TXM-13, WM-2664) (human, UniProt P43121 24-646); experiment: immunoblot of melanoma cell lysates (40 ug protein, 10% SDS-PAGE, denatured MUC18), anti-human IgG secondary, ECL
T3 construct: whole, on cells; also called MCAM; Mel-CAM
Procedure: as §1

[9] = target: T1, MUC18-V5-His antigen (extracellular …); experiment: SPR (Biacore 3000), mAb captured on protein A, MUC18-V5-His in flow, 1:1 model; November 2001, chip III; exponent printed without its minus sign

- koff [1]: 0.000402 s⁻¹ and 0.000396 s⁻¹
- Kd [2]: 0.67 nM
- kon [2]: 453000 M⁻¹ s⁻¹
- Kd [3]: 0.57 nM and 0.69 nM
- kon [3]: 709000 M⁻¹ s⁻¹ and 575000 M⁻¹ s⁻¹
- Kd [4]: 0.61 nM
- koff [4]: 0.000375 s⁻¹
- kon [4]: 627000 M⁻¹ s⁻¹
- koff [5]: 0.000302 s⁻¹
- binding result [6]: no binding
- Kd [7]: 0.46 nM and 0.62 nM and 0.65 nM and 0.59 nM
- kon [7]: 749000 M⁻¹ s⁻¹ and 625000 M⁻¹ s⁻¹ and 615000 M⁻¹ s⁻¹ and 661000 M⁻¹ s⁻¹
- binding result [8]: binds
- koff [9]: 0.000347 s⁻¹ and 0.000385 s⁻¹ and 0.000402 s⁻¹ and 0.000389 s⁻¹
B1: anti-MUC18 antibody c3.19.1 (antibody, human IgG2, V domains shown)
VH: QVQLQESGPGLVKPSETLSLTCTVSGGSISSYYWSWIRQPPGKGLEWIGYIYYTWTSNYNPSLKSRVTISVDTSKNQFSLRLSSVTAADTAVYYCARDQGQWLLPDAFDIWGQGTMVTVSS
VL: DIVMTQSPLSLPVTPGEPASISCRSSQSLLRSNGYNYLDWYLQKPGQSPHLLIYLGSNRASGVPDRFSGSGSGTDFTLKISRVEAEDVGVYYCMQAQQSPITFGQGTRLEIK
notes: also called ABX-MA1; MAb 3.19.1
